Patent publication US20180194839A1 (Novartis, published 2018)

T1: human IL-17A (construct not stated) (human, UniProt Q16552 24-155, limits assumed)
T1 construct: also called huIL-17A; human IL-17A biotin
T1 sequence: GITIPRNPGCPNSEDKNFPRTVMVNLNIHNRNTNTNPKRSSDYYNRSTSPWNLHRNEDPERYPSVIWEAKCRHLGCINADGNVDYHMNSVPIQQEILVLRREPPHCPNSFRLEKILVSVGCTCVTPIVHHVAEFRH


What was measured:
[1] = molecular target: T1, human IL-17A (construct not stated); test: ELISA on coated huIL-17A, crude Fab extract, overnight with 200 nM XAB1 Fab as competitor
[2] = molecular target: T1, human IL-17A (construct not stated); test: ELISA on coated huIL-17A, crude Fab extract, wash of at least 3 h
[3] = molecular target: T1, human IL-17A (construct not stated); test: ELISA on coated huIL-17A, crude Fab extract
[4] = molecular target: T1, human IL-17A (construct not stated); test: ELISA titration of purified Fab on plate-coated huIL-17A, normalized signal; x axis printed as log10 of Fab concentration (M)

| Competition ELISA (normalized to XAB1 Fab) [1] | Off-rate ELISA (normalized to XAB1 Fab) [2] | Classic ELISA (normalized to XAB1 Fab) [3] | EC50 (read off the curve) [4] | Binder |
| --- | --- | --- | --- | --- |
| 36.6 ratio to XAB1 Fab | 34.2 ratio to XAB1 Fab | 2.9 ratio to XAB1 Fab | – | MB454 (Fab, V domains shown, 32 stays A); heavy chain C-terminal Flag tag) VH: EVQLVESGGDLVQPGGSLRLSCAASGFTFSSYWMSWVRQAPGKGLEWVANIKQDGSEKYYVDSVKGRFTISRDNAKNSLYLQMNSLRAEDTAVYYCARDRGSLYYWGQGTLVTVSS VL: AIQLTQSPSSLSASVGDRVTITCRPSQGILWALAWYQQKPGKAPKLLIYDASSLENGVPSRFSGSGSGTDFTLTISSLQPEDFATYYCQQFNSYPLTFGGGTKVEIK |
| 62.8 ratio to XAB1 Fab | 49.8 ratio to XAB1 Fab | 2.9 ratio to XAB1 Fab | – | MB461 (Fab, V domains shown, heavy chain C-terminal Flag tag) VH: EVQLVESGGDLVQPGGSLRLSCAASGFTFSSYWMSWVRQAPGKGLEWVANIKQDGSEKYYVDSVKGRFTISRDNAKNSLYLQMNSLRAEDTAVYYCARDRGSLYYWGQGTLVTVSS VL: AIQLTQSPSSLSASVGDRVTITCRPSQGIYWTLAWYQQKPGKAPKLLIYDASSLENGVPSRFSGSGSGTDFTLTISSLQPEDFATYYCQQFNSYPLTFGGGTKVEIK |
| 45.2 ratio to XAB1 Fab | 47.1 ratio to XAB1 Fab | 3.1 ratio to XAB1 Fab | – | MB483 (Fab, V domains shown, heavy chain C-terminal Flag tag) VH: EVQLVESGGDLVQPGGSLRLSCAASGFTFSSYWMSWVRQAPGKGLEWVANIKQDGSEKYYVDSVKGRFTISRDNAKNSLYLQMNSLRAEDTAVYYCARDRGSLYYWGQGTLVTVSS VL: AIQLTQSPSSLSASVGDRVTITCRPSQGIFWTLAWYQQKPGKAPKLLIYDASSLENGVPSRFSGSGSGTDFTLTISSLQPEDFATYYCQQFNSYPLTFGGGTKVEIK |
| 41.1 ratio to XAB1 Fab | 41.5 ratio to XAB1 Fab | 2.7 ratio to XAB1 Fab | – | MB438 (Fab, V domains shown, 32 stays A); heavy chain C-terminal Flag tag) VH: EVQLVESGGDLVQPGGSLRLSCAASGFTFSSYWMSWVRQAPGKGLEWVANIKQDGSEKYYVDSVKGRFTISRDNAKNSLYLQMNSLRAEDTAVYYCARDRGSLYYWGQGTLVTVSS VL: AIQLTQSPSSLSASVGDRVTITCRPSQGIPYALAWYQQKPGKAPKLLIYDASSLENGVPSRFSGSGSGTDFTLTISSLQPEDFATYYCQQFNSYPLTFGGGTKVEIK |
| 29.3 ratio to XAB1 Fab | 39.7 ratio to XAB1 Fab | 2.3 ratio to XAB1 Fab | – | MB433 (Fab, V domains shown, heavy chain C-terminal Flag tag) VH: EVQLVESGGDLVQPGGSLRLSCAASGFTFSSYWMSWVRQAPGKGLEWVANIKQDGSEKYYVDSVKGRFTISRDNAKNSLYLQMNSLRAEDTAVYYCARDRGSLYYWGQGTLVTVSS VL: AIQLTQSPSSLSASVGDRVTITCRPSQGIYWGLAWYQQKPGKAPKLLIYDASSLENGVPSRFSGSGSGTDFTLTISSLQPEDFATYYCQQFNSYPLTFGGGTKVEIK |
| 41 ratio to XAB1 Fab | 34.7 ratio to XAB1 Fab | 2.7 ratio to XAB1 Fab | – | MB457 (Fab, V domains shown, 30 stays I); heavy chain C-terminal Flag tag) VH: EVQLVESGGDLVQPGGSLRLSCAASGFTFSSYWMSWVRQAPGKGLEWVANIKQDGSEKYYVDSVKGRFTISRDNAKNSLYLQMNSLRAEDTAVYYCARDRGSLYYWGQGTLVTVSS VL: AIQLTQSPSSLSASVGDRVTITCRPSQGIIWSLAWYQQKPGKAPKLLIYDASSLENGVPSRFSGSGSGTDFTLTISSLQPEDFATYYCQQFNSYPLTFGGGTKVEIK |
| 37.3 ratio to XAB1 Fab | 44.2 ratio to XAB1 Fab | 2.3 ratio to XAB1 Fab | – | MB432 (Fab, V domains shown, 32 stays A); heavy chain C-terminal Flag tag) VH: EVQLVESGGDLVQPGGSLRLSCAASGFTFSSYWMSWVRQAPGKGLEWVANIKQDGSEKYYVDSVKGRFTISRDNAKNSLYLQMNSLRAEDTAVYYCARDRGSLYYWGQGTLVTVSS VL: AIQLTQSPSSLSASVGDRVTITCRPSQGILFALAWYQQKPGKAPKLLIYDASSLENGVPSRFSGSGSGTDFTLTISSLQPEDFATYYCQQFNSYPLTFGGGTKVEIK |
| 46.4 ratio to XAB1 Fab | 43.3 ratio to XAB1 Fab | 2.7 ratio to XAB1 Fab | – | MB453 (Fab, V domains shown, heavy chain C-terminal Flag tag) VH: EVQLVESGGDLVQPGGSLRLSCAASGFTFSSYWMSWVRQAPGKGLEWVANIKQDGSEKYYVDSVKGRFTISRDNAKNSLYLQMNSLRAEDTAVYYCARDRGSLYYWGQGTLVTVSS VL: AIQLTQSPSSLSASVGDRVTITCRPSQGIVFWLAWYQQKPGKAPKLLIYDASSLENGVPSRFSGSGSGTDFTLTISSLQPEDFATYYCQQFNSYPLTFGGGTKVEIK |
| 44.2 ratio to XAB1 Fab | 43 ratio to XAB1 Fab | 2.1 ratio to XAB1 Fab | – | MB491 (Fab, V domains shown, heavy chain C-terminal Flag tag) VH: EVQLVESGGDLVQPGGSLRLSCAASGFTFSSYWMSWVRQAPGKGLEWVANIKQDGSEKYYVDSVKGRFTISRDNAKNSLYLQMNSLRAEDTAVYYCARDRGSLYYWGQGTLVTVSS VL: AIQLTQSPSSLSASVGDRVTITCRPSQGIFFWLAWYQQKPGKAPKLLIYDASSLENGVPSRFSGSGSGTDFTLTISSLQPEDFATYYCQQFNSYPLTFGGGTKVEIK |
| 53.3 ratio to XAB1 Fab | 41.5 ratio to XAB1 Fab | 2.9 ratio to XAB1 Fab | – | MB450 (Fab, V domains shown, heavy chain C-terminal Flag tag) VH: EVQLVESGGDLVQPGGSLRLSCAASGFTFSSYWMSWVRQAPGKGLEWVANIKQDGSEKYYVDSVKGRFTISRDNAKNSLYLQMNSLRAEDTAVYYCARDRGSLYYWGQGTLVTVSS VL: AIQLTQSPSSLSASVGDRVTITCRPSQGIMWWLAWYQQKPGKAPKLLIYDASSLENGVPSRFSGSGSGTDFTLTISSLQPEDFATYYCQQFNSYPLTFGGGTKVEIK |
| 42.1 ratio to XAB1 Fab | 33 ratio to XAB1 Fab | 2.7 ratio to XAB1 Fab | – | MB458 (Fab, V domains shown, heavy chain C-terminal Flag tag) VH: EVQLVESGGDLVQPGGSLRLSCAASGFTFSSYWMSWVRQAPGKGLEWVANIKQDGSEKYYVDSVKGRFTISRDNAKNSLYLQMNSLRAEDTAVYYCARDRGSLYYWGQGTLVTVSS VL: AIQLTQSPSSLSASVGDRVTITCRPSQGIWYQLAWYQQKPGKAPKLLIYDASSLENGVPSRFSGSGSGTDFTLTISSLQPEDFATYYCQQFNSYPLTFGGGTKVEIK |
| 39.5 ratio to XAB1 Fab | 44.4 ratio to XAB1 Fab | 2.4 ratio to XAB1 Fab | – | MB434 (Fab, V domains shown, heavy chain C-terminal Flag tag) VH: EVQLVESGGDLVQPGGSLRLSCAASGFTFSSYWMSWVRQAPGKGLEWVANIKQDGSEKYYVDSVKGRFTISRDNAKNSLYLQMNSLRAEDTAVYYCARDRGSLYYWGQGTLVTVSS VL: AIQLTQSPSSLSASVGDRVTITCRPSQGIWWYLAWYQQKPGKAPKLLIYDASSLENGVPSRFSGSGSGTDFTLTISSLQPEDFATYYCQQFNSYPLTFGGGTKVEIK |
| 64.9 ratio to XAB1 Fab | 58.5 ratio to XAB1 Fab | 1.9 ratio to XAB1 Fab | – | MB486 (Fab, V domains shown, heavy chain C-terminal Flag tag) VH: EVQLVESGGDLVQPGGSLRLSCAASGFTFSSYWMSWVRQAPGKGLEWVANIKQDGSEKYYVDSVKGRFTISRDNAKNSLYLQMNSLRAEDTAVYYCARDRGSLYYWGQGTLVTVSS VL: AIQLTQSPSSLSASVGDRVTITCRPSQGIWWMLAWYQQKPGKAPKLLIYDASSLENGVPSRFSGSGSGTDFTLTISSLQPEDFATYYCQQFNSYPLTFGGGTKVEIK |
| 44.6 ratio to XAB1 Fab | 44.7 ratio to XAB1 Fab | 2.7 ratio to XAB1 Fab | ~2 nM | MB435 (Fab, V domains shown, heavy chain C-terminal Flag tag) VH: EVQLVESGGDLVQPGGSLRLSCAASGFTFSSYWMSWVRQAPGKGLEWVANIKQDGSEKYYVDSVKGRFTISRDNAKNSLYLQMNSLRAEDTAVYYCARDRGSLYYWGQGTLVTVSS VL: AIQLTQSPSSLSASVGDRVTITCRPSQGINWELAWYQQKPGKAPKLLIYDASSLENGVPSRFSGSGSGTDFTLTISSLQPEDFATYYCQQFNSYPLTFGGGTKVEIK |
| 51.5 ratio to XAB1 Fab | 40.4 ratio to XAB1 Fab | 2.9 ratio to XAB1 Fab | – | MB448 (Fab, V domains shown, heavy chain C-terminal Flag tag) VH: EVQLVESGGDLVQPGGSLRLSCAASGFTFSSYWMSWVRQAPGKGLEWVANIKQDGSEKYYVDSVKGRFTISRDNAKNSLYLQMNSLRAEDTAVYYCARDRGSLYYWGQGTLVTVSS VL: AIQLTQSPSSLSASVGDRVTITCRPSQGIVWMLAWYQQKPGKAPKLLIYDASSLENGVPSRFSGSGSGTDFTLTISSLQPEDFATYYCQQFNSYPLTFGGGTKVEIK |
| 57 ratio to XAB1 Fab | 45.5 ratio to XAB1 Fab | 3 ratio to XAB1 Fab | – | MB447 (Fab, V domains shown, heavy chain C-terminal Flag tag) VH: EVQLVESGGDLVQPGGSLRLSCAASGFTFSSYWMSWVRQAPGKGLEWVANIKQDGSEKYYVDSVKGRFTISRDNAKNSLYLQMNSLRAEDTAVYYCARDRGSLYYWGQGTLVTVSS VL: AIQLTQSPSSLSASVGDRVTITCRPSQGIFWWLAWYQQKPGKAPKLLIYDASSLENGVPSRFSGSGSGTDFTLTISSLQPEDFATYYCQQFNSYPLTFGGGTKVEIK |
| 46.7 ratio to XAB1 Fab | 45.1 ratio to XAB1 Fab | 2.4 ratio to XAB1 Fab | – | MB456 (Fab, V domains shown, heavy chain C-terminal Flag tag) VH: EVQLVESGGDLVQPGGSLRLSCAASGFTFSSYWMSWVRQAPGKGLEWVANIKQDGSEKYYVDSVKGRFTISRDNAKNSLYLQMNSLRAEDTAVYYCARDRGSLYYWGQGTLVTVSS VL: AIQLTQSPSSLSASVGDRVTITCRPSQGILWHLAWYQQKPGKAPKLLIYDASSLENGVPSRFSGSGSGTDFTLTISSLQPEDFATYYCQQFNSYPLTFGGGTKVEIK |
